Experimental findings from US7265263B1, “Potato transcription factors, methods of use thereof, and a method for enhancing tuber development” (Iowa State University Research Foundation, Inc., priority 2002, dated 2007) are described below.

B1: StBEL-22: BEL transcription factor from Solanum tuberosum, SEQ ID NO:10 (protein, listed as Solanum tuberosum)
chain: TSVYETAGLLSEMFNFQTTSTAATELLQNQLSNNYRHPNQQPHHQPPTREWFGNRQEIVVGGSLQVTFGDTKDDVNAKVLLSNRDSVTDYYQRQHNQVPSINTAESMQLFLMNPQPSSPSQSTPSTLHQGFSSPVGGHFSQFMCGGASTSSNPIGGVNVIDQGQGLSLSLSSTLQHLEASKVEDLRMNSGGEMLFFNQESQNHHNIGFGSSLGLVNVLRNSKYVKATQELLEEFCCVGKGQLFKKINKVSRNNNTSTSPIINPSGSNNNNSSSSKAIIPPNLSTAERLDHQRRKVKLLSMLDEVEKRYNHYCEQMQMVVNSFDLVMGFGAAVPYTALAQKAMSRHFKCLKDGVAAQLKKTCEALGEKDASSSSGLTKGETPRLKVLEQSLRQQRAFQQMGMMEQEAWRPQRGLPERSVNILRAWLFEHFLHPYPSDADKHLLARQTGLSRNQVANWFINARVRLWKPMVEEMYQREVNEDDVDDMQENQNSTNTQIPTPNIIITTNSNITETKSAATATIASDKKPQINVSEIDPSIVAMNTHYSSSMPTQLTNFPTIQDESDHILYRRSGAEYGTTNMASNSEIGSNMITFGTTTASDVSLTLGLRHAGNLPENTHFSG
B2: StBEL-11: BEL transcription factor from Solanum tuberosum, SEQ ID NO:4 (protein, listed as Solanum tuberosum)
chain: MTFRSSLPLDLREISTTNHQVGILSSSPLPSPGTNTNNINHTRGLGASSSFSISNGMILGSKYLKVAQDLLDEVVNVGKNIKLSDGLESGAKEKHKLDNELISLASDDVESSSQKNSGVELTTAQRQELQMKKAKLVSMLDEVDQRYRQYHHQMQMIATSFEQTTGIGSSKSYTQLALHTISKQFRCLKDAISGQIKDTSKTLGEEENIGGKIEGSKLKFVDHHLRQQRALQQLGMMQTNAWKPQRGLPERAVSVLRAWLFEHFLHPYPKDSDKIILAKQTGLTRSQVSNWFINARVRLWKPMVEEMYMEEVKKNNQEQNIEPNNNEIVGSKSSVPQEKLPISSNIIHNASPNDISTSTISTSPTGGGGSIPTQTVAGFSFIRSLNMENIDDQRNNKKARNEMQNCSTSTILSMEREIINKVVQDETIKSEKFNNTQTRECYSLMTPNYTMDDQFGTRFNNQNHEQLATTTTFHQGNGHVSLTLGLPPNSENQHNYIGLENHYNQPTHHPNISYENIDFQSGKRYATQLLQDFVS
B3: StBEL-14: BEL transcription factor from Solanum tuberosum, SEQ ID NO:8 (protein, listed as Solanum tuberosum)
chain: MVNHQLQNFETNPEMYNLSSTTSSMDQMIGFPPNNNNPHHVLWKGNFPNKINGVDDDDHGPSSSKNIISEQFYQHGSHENMLTTTTTHHDDHQGSWHHDNNRTLLVDDPSMRCVFPCEGNERPSHGLSLSLCSSNPSSIGLQSFELRHQDLQQGLIHDGFLGKSTNIQQGYFHHHHQVRDSKYLGPAQELLSEFCSLGIKKNNDHSSSKVLLKQHESTASTSKKQLLQSLDLLELQKRKTKLLQMLEEVDRRYKHYCDQMKAVVSSFEAVAGNGAATVYSALASRAMSRHFRCLRDGIVAQIKATKMAMGEKDSTSTLIPGSTRGETPRLRLLDQTLRQQKAFQQMNMMETHPWRPQRGLPERSVSVLRAWLFEHFLHPYPSDVDKHILARQTGLSRSQVSNWFINARVRLWKPMVEEMYLEETKEEENVGSPDGSKALIDDMTIHQSHIDHHQADQKPNLVRIDSECISSIINHQPHEKNDQNYGVIRGGDQSFGAIELDFSTNIAYGTSGGDHHHHGGGVSLTLGLQQHGGSGGSSMGLTTFSSQPSHNQSSLFYPRDDDQVQYSSLLDSENQNLPYRNLDGGTTSS

In the assay the test system is POTH1. The experiment in a line: Yeast two-hybrid interaction with POTH1. Particulars: nutritional selection and lacZ activation, yeast AH109. In kind it is binding, Solanum tuberosum. From the text: The Matchmaker two-hybrid system (Clontech, Calif.) was used for the yeast two-hybrid screen. Yeast transformation and plasmid rescue into DH5-α E. coli cells were according to the manufacturer's instructions. Full-length POTH1 was cloned into the pBridge (Clontech, Calif.) vector and used as bait to screen the potato (S. tuberosum ‘Desireé’) stolon cDNA library in pAD-GAL4-2.1 (Stratagene, Calif.). Positive interactions were confirmed by cotransforming yeast strain AH109 with each purified pAD plasmid and pBridge: POTH1 and plating on -leucine/-tryptophan (transformation control) and -leucine/-tryptophan/-histidine/-adenine (selection) nutrient medium. Induction of the AH109 reporter gene, lacZ, was measured with a yeast β-galactosidase assay kit (Pierce Chemicals). β-galactosidase activity (FIG. 9B) was determined from a known density of yeast cells and calculated as 1000×OD420/time of color reaction (minutes)×volume of yeast culture (ml)×OD600.
POTH1, sequence (as listed by the source): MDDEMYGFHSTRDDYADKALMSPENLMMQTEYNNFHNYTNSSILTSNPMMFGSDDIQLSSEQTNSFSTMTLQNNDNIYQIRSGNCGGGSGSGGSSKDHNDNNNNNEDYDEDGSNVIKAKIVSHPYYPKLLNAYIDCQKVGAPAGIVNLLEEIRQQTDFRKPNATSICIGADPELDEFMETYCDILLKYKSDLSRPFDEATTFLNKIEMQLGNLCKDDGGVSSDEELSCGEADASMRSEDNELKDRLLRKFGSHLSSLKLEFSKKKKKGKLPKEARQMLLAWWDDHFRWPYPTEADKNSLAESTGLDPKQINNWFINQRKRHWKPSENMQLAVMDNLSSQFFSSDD
The StBEL-05 deletion constructs were amplified by PCR, then cloned into the vector, pGAD, in-frame with the GAL4 activation domain. POTH1 deletion constructs were amplified by PCR, and cloned into pBridge (Clontech) in-frame with the GAL4 binding domain. Sequencing of selected cDNAs and constructs was performed at the Iowa State University DNA Facility. For deletion analysis, modified constructs of POTH1 were cloned into the pBridge vector for fusion with the DNA-binding domain of GAL4 (FIG. 10A). For StBEL-05, constructs were cloned into the pGAD vector for fusion with the activating domain of GAL4 (FIG. 10B). Deletion constructs were made from both the amino and carboxy termini. These mutants were then tested for interaction in the yeast two-hybrid system by cotransforming into yeast strain AH109 with the corresponding full-length partner (StBEL-05 in pGAL4 or POTH1 in pBridge). All constructs were sequenced to verify that they were in-frame. Positive interactions were verified for lacZ induction by using a β-galactosidase assay (Pierce Chemical Company). For POTH1, seven deletion constructs were tested (FIG. 10A). For the BEL TFs, a fusion construct of StBEL-05 (653 aa of StBEL-05 sequence) and nine deletion constructs were tested (FIG. 10B).
In the case of B1, the “interaction with POTH1” value is listed as “showed selective interaction”.

On to B2, for which the “interaction with POTH1” value is reported as “showed selective interaction”.

Turning to B3, the “interaction with POTH1” value was “showed selective interaction”.
